Sequences and labels used below:
T1: mCherry fusion FUS LC domain (UniProt P35637 2-214)
T1 sequence (looked up): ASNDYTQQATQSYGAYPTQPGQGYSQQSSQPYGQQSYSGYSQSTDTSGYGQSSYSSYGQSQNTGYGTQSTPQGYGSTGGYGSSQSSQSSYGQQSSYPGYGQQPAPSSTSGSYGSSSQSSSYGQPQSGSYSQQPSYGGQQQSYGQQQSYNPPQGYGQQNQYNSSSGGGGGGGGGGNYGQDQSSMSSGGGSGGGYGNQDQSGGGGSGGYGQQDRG

B1: mCherry fusion hnRNPA2 LC domain F291S mutant (domain or fragment, UniProt P22626-2 181-341, looked up)
chain: MQEVQSSRSGRGGNFGFGDSRGGGGNFGPGPGSNFRGGSDGYGSGRGFGDGYNGYGGGPGGGNFGGSPGYGGGRGGYGGGGPGYGNQGGGYGGGYDNYGGGNYGSGNYNDSGNYNQQPSNYGPMKSGNFGGSRNMGGPYGGGNYGPGGSGGSGGYGGRSRY
B2: GFP:ZEB2-ZnF5 (domain or fragment, UniProt O60315 581-605, looked up)
chain: FSCQFCKESFPGPIPLHQHERYLCK
B3: GFP-fused ZnFs of KLF4 (domain or fragment)
chain: not shown
B4: GFP:ZEB2-ZnF7 (domain or fragment, UniProt O60315 1027-1049, looked up)
chain: HQCQICKKAFKHKHHLIEHSRLH
B5: GFP:ZEB2-ZnF7-8 (domain or fragment, UniProt O60315 1027-1076, looked up)
chain: HQCQICKKAFKHKHHLIEHSRLHSGEKPYQCDKCGKRFSHSGSYSQHMNH
B6: GFP:ZNF512B ZnF3-5 (domain or fragment, UniProt Q96KM6 540-653, looked up)
chain: LKCQHCRKQFKSKAGLNYHTMAEHSAKPSDAEASEGGEQEERERLRKVLKQMGRLRCPQEGCGAAFSSLMGYQYHQRRCGKPPCEVDSPSFPCTHCGKTYRSKAGHDYHVRSEH
B7: GFP:ZEB1-ZnF5-7 (domain or fragment, UniProt P37275 904-981, looked up)
chain: YACDLCDKIFQKSSSLLRHKYEHTGKRPHECGICKKAFKHKHHLIEHMRLHSGEKPYQCDKCGKRFSHSGSYSQHMNH
B8: GFP fusion ZEB2 ZnF6-8 (domain or fragment, UniProt O60315 999-1076, looked up)
chain: B7 chain with I9T, E30Q, G32Q, M48S
B9: GFP:ZEB2-ZnF6-7 (domain or fragment, UniProt O60315 999-1049, looked up)
chain: YACDLCDKTFQKSSSLLRHKYEHTGKRPHQCQICKKAFKHKHHLIEHSRLH
B10: GFP:ZEB2-ZnF8 (domain or fragment, UniProt O60315 1055-1076, looked up)
chain: YQCDKCGKRFSHSGSYSQHMNH
B11: GFP:ZEB2-ZnF6 (domain or fragment, UniProt O60315 999-1021, looked up)
chain: YACDLCDKTFQKSSSLLRHKYEH
B12: GFP:ZEB2-ZnF1-4 (domain or fragment, UniProt O60315 211-334, looked up)
chain: LTCPYCDRGYKRLTSLKEHIKYRHEKNEENFSCPLCSYTFAYRTQLERHMVTHKPGTDQHQMLTQGAGNRKFKCTECGKAFKYKHHLKEHLRIHSGEKPYECPNCKKRFSHSGSYSSHISSKKC

Numbering of substitutions follows the chain as printed. Numbers in names are those of the source. Where “and” joins values, the source holds several entries; their conditions need not be identical. Identical values can stand only once.

Chain of mCherry fusion TDP43 LC domain (Q13148 262-414): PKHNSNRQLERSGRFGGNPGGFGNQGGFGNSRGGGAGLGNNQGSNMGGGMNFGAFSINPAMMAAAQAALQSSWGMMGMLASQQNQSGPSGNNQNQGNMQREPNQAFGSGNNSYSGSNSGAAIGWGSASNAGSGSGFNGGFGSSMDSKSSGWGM

The first data set concerns the molecule itself. Description: AUC.
Take B1: the “stoichiometry N” value is 2 and 3.

Another data set addresses mCherry fusion hnRNPA2 LC domain (UniProt P22626-2 181-341). Description: hydrogel binding assay.
For B2, the binding result was “binds”.
Turning to B3, the binding result is given as “binds”.
Same read-out and setting: next, B4: “binds”; B5: “binds”.
For the molecule B6, the binding result is given as “binds”.
The same measure, in the same setting: next, B7: “binds”; B8: “binds”; B9: “binds”.
With B10, the binding result is given as “binds”.
With B11, the binding result is on record as “binds”.
For B12, the binding result is “binds”.

A further data set addresses mCherry fusion TDP43 LC domain (UniProt Q13148 262-414). Description: hydrogel binding assay.
As for B8, the binding result is “binds”.

The target of the next data set is T1, mCherry fusion FUS LC domain. Description: hydrogel binding assay.
B8: the binding result is “binds”.

One may read the stoichiometry N as a count of units in the complex or per binding partner.

The record behind these values is article PMC12531337 (Nature Communications, 2023).
